Source: US20230109780A1 (XIYUAN ANJIAN MEDICINE SHANGHAI, published 2023)
Residue numbers refer to the chain shown, from its start.

T1: human BDNF (human, UniProt P23560 129-247)
T1 construct: Bought protein; also called Brain-Derived Neurotrophic Factor
T1 sequence (looked up): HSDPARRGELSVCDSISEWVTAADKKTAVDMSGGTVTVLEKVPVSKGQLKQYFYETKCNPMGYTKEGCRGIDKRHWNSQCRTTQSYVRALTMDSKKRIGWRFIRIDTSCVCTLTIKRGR

T2: human NT-3 (human, UniProt P20783 139-257)
T2 construct: Bought protein; also called Neurotrophic factor-3
T2 sequence (looked up): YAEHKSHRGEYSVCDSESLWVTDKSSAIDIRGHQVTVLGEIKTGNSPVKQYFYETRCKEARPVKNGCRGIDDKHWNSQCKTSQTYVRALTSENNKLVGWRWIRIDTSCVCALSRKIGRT

T3: human NT-4 (human, UniProt P34130 81-210)
T3 construct: Bought protein; also called Neurotrophic factor-4
T3 sequence (looked up): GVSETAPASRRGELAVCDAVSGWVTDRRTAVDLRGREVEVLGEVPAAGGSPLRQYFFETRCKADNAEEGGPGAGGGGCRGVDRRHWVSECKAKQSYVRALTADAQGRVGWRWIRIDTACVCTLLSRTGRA

B1: murine anti-human NGF monoclonal antibody 137H8 (antibody, V domains shown)
VH: QVQLKESGPGLVAPSQSLSITCTVSGFSLTGYAVNWVRQPPGKGLEWLGMIWFDGSTDYNSALKSRLSISKDNSKSQVFLKMNSLQTDDTARYYCARDYYGSSWYFDVWGAGTTVTVSS
VL: DIQMTQTTSSLSASLGDRVTISCRASQDISYYLNWYQQKPDGTVKLLIYYTSRLHSGVPSRFSGSGSGTDYSLTISNLEQEDIATYFCQQGNTLPRTFGGGTKLDIK
notes: Murine monoclonal antibody purified from hybridoma medium by protein G; also called anti-NGF antibody 137H8
B2: murine anti-human NGF monoclonal antibody 138E12 (antibody, V domains shown)
VH: QVQLKESGPGLVAPSQSLSITCTVSGFSLTGYGVNWVRQPPGKGLEWLGMIWFDGSTDYNSALKSRLSISKDNSKSQVFLKMNSLQTDDTARYYCAREGYYYGTTYYFDYWGQGTTLTVSS
VL: B1 VL with Y31N, D105E
notes: Murine monoclonal antibody purified from hybridoma medium by protein G; also called anti-NGF antibody 138E12
B3: murine anti-human NGF monoclonal antibody 43E5 (antibody, V domains shown)
VH: QVQLQQSGAELVRPGASVTLSCKASGYTFTDYEMHWVRQTPVHGLEWIGAIDPETGGTAYNQKFKGKATLTADKSSSTAYMELRSLTSEDSAVYYCRRGANLNHYGNDEGSYWGQGTLVTVSA
VL: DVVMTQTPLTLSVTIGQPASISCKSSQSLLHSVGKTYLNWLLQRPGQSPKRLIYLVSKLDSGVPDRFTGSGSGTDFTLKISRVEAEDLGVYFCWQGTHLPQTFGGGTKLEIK
notes: Murine monoclonal antibody purified from hybridoma medium by protein G; also called anti-NGF antibody 43E5

How the values were obtained:
[1] = biological target: T4, recombinant human NGF protein (human, UniProt P01138 122-241); test: cell-based or functional assay
T4 sequence (P01138 122-241 limits assumed): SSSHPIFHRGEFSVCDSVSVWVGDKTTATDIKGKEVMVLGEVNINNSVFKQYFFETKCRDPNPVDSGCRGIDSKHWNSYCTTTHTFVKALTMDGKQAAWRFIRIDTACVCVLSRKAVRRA

[2] = biological target: T4, recombinant human NGF protein; test: cell-based or functional assay; remark: listed apart in the source
[3] = biological target: T4, recombinant human NGF protein; test: cell-based or functional assay; remark: listed apart in the source
[4] = biological target: T4, recombinant human NGF protein; test: ELISA, human NGF coated
Experimental: (§1) The binding capacity of anti-NGF antibodies was investigated by using human NGF as an antigen (Beijing Yiqiao Shenzhou Technology Co., Ltd., 11050-HNAC). Each well of a 96-well microtiter plate was coated with 50 ng of human NGF, after washing and blocking, and then added with serially diluted antibodies, and incubated at room temperature for 1 hour. After washing three times, HRP-conjugated goat anti-mouse antibody (Biolegend, 405306) was added and incubated at room temperature for 1 hour. After washing three times, tetramethylbenzidine (TMB, Biolegend, 421101) was added for color development. 1M HC1 was used to terminate the color development, and the absorbance values were read at 450 nm with a microplate reader.

[5] = biological target: T4, recombinant human NGF protein; test: blocking ELISA, human NGF coated, antibody first, then TrkA-Fc
Experimental: If using the coated ligand NGF method for detection, each well of a 96-well microtiter plate was coated with 50 ng of human NGF and washed three times. […] 100 μL of 1 μg/mL TrkA fused to human Fc was added to each well, incubated for 1 hour at room temperature, and washed three times. HRP-conjugated donkey anti-human IgG antibody (Biolegend, 410902) was added and reacted for 1-hour at room temperature. After washing, add TMB to develop color, and read after the termination of development.

[6] = biological target: T4, recombinant human NGF protein; test: BLI (ForteBio Octet Red96), biotin-NGF on SA sensor, antibody in solution
From the text: The affinities of the antibodies were detected with Biomolecular Interaction Detection Platform (ForteBio Octet Red96 (PALL)). Biotin-labeled human NGF was immobilized by using SA (Streptavidin) Biosensor (Fortebio, 18-5021), and then conjugated with gradient concentrations of anti-NGF antibodies.

[7] = biological target: T4, recombinant human NGF protein; test: blocking ELISA, TrkA-Fc coated, antibody premixed with biotin-labeled human NGF
Experimental: If the method of coated receptor TrkA is used for detection, 50 ng of NGF receptor TrkA protein (fused to human Fc) was coated in each well of a 96-well microtiter plate, washed three times, and then blocked with 3% BSA for 1 hour. […] 100 μl was taken and mixed with an equal volume of 1 μg/mL biotin-labeled human NGF, incubated at room temperature for 0.5 hours, and then added to an ELISA plate which has been washed with blocking solution. Incubated for 1 hour at room temperature and washed three times. Streptavidin-labeled HRP (Biolegend, 405210) was added, and incubated for 0.5 h and then washed three times. The microtiter plate was added with TMB, and read after the color development was terminated.

human BDNF = biological target: T1, human BDNF; test: ELISA, plate coated with human BDNF (50 ng per well), OD450
Experimental: as §1
(§2) Each well of a 96-well microtiter plate was coated with 50 ng of human NGF (Beijing Yiqiao Shenzhou Technology Co., Ltd., 11050-HNAC), human BDNF (Beijing Yiqiao Shenzhou Technology Co., Ltd., 50240-MNAS), human NT-3 (Beijing Yiqiao Shenzhou Technology Co., Ltd., 10286-HNAE), or human NT-4 (Alomone, N-270). The bindings of the murine anti-NGF antibodies to human NGF and three homo-family proteins were detected according to the method described in Example 2.

human NT-3 = biological target: T2, human NT-3; test: ELISA, plate coated with human NT-3 (50 ng per well), OD450
Experimental: as §1, §2

human NT-4 = biological target: T3, human NT-4; test: ELISA, plate coated with human NT-4 (50 ng per well), OD450
Experimental: as §1, §2

Binder | IC50, inhibition of NGF-induced proliferation of TF-1 cell [1] [nM] | IC50, inhibition of NGF-induced proliferation of TrkA/Ba/F3 cells [2] [nM] | IC50 (row head prints EC50), inhibition of reporter gene expression in TrkA/NFAT-bla/CHO cells [3] [nM] | EC50 [4] [nM] | IC50 [5] [nM] | Kd [6] [nM] | koff [6] [s⁻¹] | kon [6] [M⁻¹ s⁻¹] | IC50 [7] [nM] | binding result (human BDNF) | binding result (human NT-3) | binding result (human NT-4)
B1 | 0.123 | 0.083 | 0.0859 | 0.112 | 0.791 | 0.381 | 4.91e-05 | 129000 | 0.738 |  |  | 
B2 | 0.077 | 0.098 | 0.0442 | 0.1 | 0.865 | < 0.001 | < 1e-07 | 634000 | 0.677 | no binding (tested: 66.67 nM) | no binding (tested: 66.67 nM) | no binding (tested: 66.67 nM)
B3 | 0.083 | 0.096 | 0.0532 | 0.082 | 0.967 | < 0.001 | < 1e-07 | 373000 | 0.767 | no binding (tested: 66.67 nM) | no binding (tested: 66.67 nM) | no binding (tested: 66.67 nM)
